Test [1] addresses T1, human CD79b recombinant protein (human, UniProt P40259 29-159).
T1 construct: also called human CD79b ECD antigen; recombinant human CD79b ECD
T1 sequence: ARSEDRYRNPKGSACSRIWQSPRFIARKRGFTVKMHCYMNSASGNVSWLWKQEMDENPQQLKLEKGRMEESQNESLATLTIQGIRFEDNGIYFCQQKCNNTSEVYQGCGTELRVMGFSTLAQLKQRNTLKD
The test is described as follows: ELISA on recombinant human CD79b ECD; A 450nm. (In general: ELISA stands for enzyme-linked immunosorbent assay.)

Test [2] concerns the target T1, human CD79b recombinant protein. The test can be described thus: BLI, antibody captured on anti-human IgG Fc probes, human CD79b in solution, 1:1 model. As to the method:
(§1) Binding affinities of anti-CD79b antibodies to human CD79b recombinant proteins were tested by BLI. 10 ug/ml of anti-CD79b antibodies were captured by anti-human IgG Fc probes (Gator Bio Catalog #160024). […] Absolute kD was determined by applying a 1:1 binding model (Global Rmax unlinked).
(In general: In BLI a coated tip is dipped into the sample, and binding shifts an interference pattern.)

Test [3] has the same target. The test is described as follows: BLI; antibody at 10 ug/ml captured on anti-human IgG Fc probes, hCD79b in solution; same value printed in the rows for 18.3 and 9.14 nM hCD79b. The method, then: as §1
In test [4] the target is T2, CD79b endogenously expressed on the cell surface (malignant B cell lines, normal B cells in PBMC, CLL … (human, UniProt P40259 29-229)).
T2 construct: whole, on cells; On cells CD79b stands in the B-cell receptor complex with CD79a and surface Ig; also called cell surface CD79b; endogenous CD79b
T2 sequence (looked up): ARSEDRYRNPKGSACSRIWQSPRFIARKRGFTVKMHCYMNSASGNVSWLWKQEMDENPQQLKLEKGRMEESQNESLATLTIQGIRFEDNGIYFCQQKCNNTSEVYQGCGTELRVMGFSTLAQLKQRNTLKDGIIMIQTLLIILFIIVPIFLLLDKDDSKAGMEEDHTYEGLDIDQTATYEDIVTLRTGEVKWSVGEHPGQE
The test can be described thus: flow cytometry on a cell line expressing endogenous CD79b (not named on the sheet or in the text); MFI (PE).

Test [5] concerns the target T2, CD79b endogenously expressed on the …. The test can be described thus: flow cytometry on PBMC of CLL Donor 0255 (B lymphocytes); PE goat anti-human IgG Fc; MFI PE. As to the method:
To determine the binding affinities of the anti-CD79b antibodies to cell surface CD79b on Chronic Lymphocytic Leukemia (CLL) patient's B lymphocytes, a cell-based binding assay was conducted. […] CLL patient PBMCs were purchased from the company Bioscience. […] Specifically, 2.5×10⁴ PBMC cells in 50 μl FACS buffer (1×PBS+2% BSA+2 mM EDTA) were seeded in each well of a V bottom 96-well plate. […] The mixture was incubated on ice for 30 minutes, and then washed twice with FACS buffer. The cells were re-suspended in 100 μl FACS buffer containing PE conjugated goat anti-human IgG Fc (1:1000) and anti-human CD19 (BV421), and incubated for 30 minutes on ice in darkness. After washing twice with FACS buffer, the cells were re-suspended in 100 μl of FACS buffer and analyzed with a Cytek cytometer.
On the technique in general: A flow cytometer gives signals particle by particle.

Test [6] has the same target. The test is described as follows: flow cytometry on Daudi cells; anti-human IgG1-PE; MFI (PE); table under the graph. As to the method: (§2) The binding affinities of anti-CD79b antibodies to malignant B cell lines were tested. […] The cells were then incubated with 100 μl anti-human IgG1-PE (Invitrogen, cat: 12-4998-82), 1:1000 dilution, for 30 min on ice, washed with 200 ul PBS for three times before flow cytometry analysis.

Test [7] has the same target. The test is described as follows: flow cytometry on Nalm-6 cells; anti-human IgG1-PE; MFI (PE); table under the graph. The method, then:
as §2

For test [8] the target is unchanged. The test is described as follows: flow cytometry on BJAB cells; anti-human IgG1-PE; MFI (PE); table under the graph. As to the method:
as §2

For test [9] the target is unchanged. The test is described as follows: flow cytometry on SU-DHL-4 cells; anti-human IgG1-PE; MFI (PE); table under the graph. As to the method: as §2
For test [10] the target is unchanged. The test is described as follows: flow cytometry on Ramos cells; anti-human IgG1-PE; MFI (PE); table under the graph. The method, then:
as §2

Test [11] addresses T1, human CD79b recombinant protein. The test can be described thus: ELISA, coated human CD79b recombinant protein. As to the method: (§3) Binding affinities of anti-CD79b antibodies to human and cynomolgus CD79b recombinant proteins were tested by ELISA. 1 ug/ml (in PBS buffer) of human or cynomolgus CD79b recombinant proteins were coated on an ELISA plate overnight. ELISA plates were washed and blocked with blocking buffer (PBS+1% BSA) followed by incubation with serially diluted anti-CD79b primary antibodies. Anti-CD79b antibody binding was quantified using an anti-human IgG HRP secondary antibody (Biolegend Catalog #410902) and HRP substrate.

For test [12], the target named is T3, cynomolgus CD79b recombinant protein (cynomolgus).
T3 chain: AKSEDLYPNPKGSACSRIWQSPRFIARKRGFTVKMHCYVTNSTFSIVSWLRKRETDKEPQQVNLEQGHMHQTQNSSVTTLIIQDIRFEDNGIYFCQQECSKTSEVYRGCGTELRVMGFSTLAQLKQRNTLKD
The test is described as follows: ELISA, coated cynomolgus CD79b recombinant protein. The method, then: as §3

The EC50 (read off the curve) is the midpoint of the concentration-response curve. For orientation: Kd means the constant that tells how readily two partners part at equilibrium. As usually defined, the koff is the rate constant with which the complex falls apart. Usually kon stands for the rate constant with which the complex forms. Usually EC50 stands for the concentration needed to bring the measured effect to its halfway point. A high value points to a need for much substance. For orientation: IC50 means the point on the concentration scale where inhibition reaches its midpoint.

B1: ch57B9 (antibody, human IgG1, kappa, V domains shown)
VH: QSVRETGGGLVQPGGSLTLSCEASEFTINIDYWISWVRQAPGKGLEWIGIIDPGDGTTYFAIWVSGRFTITRNTNLNTVDLKMTSLTEADTATYFCAREVSASAYQYDLWGPGTLVTVSS
VL: ALVMTQTPSSVSADVGGTVSINCQASEDIESYLAWYQQKPGQPPKLLIYFTSNLASGVPSRFKGSGSGTEYTLTISGVQPDDAATYYCQQGYRNSDVHNPFGGGTEVVVKR
notes: Rabbit/human chimeric IgG1 kappa; also called chimeric 57B9
In the case of B1, the “EC50 (read off the curve)” value in test [1] was roughly 0.1 nM; in test [4], roughly 0.3 nM; in [5], roughly 0.9 nM. For the same molecule, in test [2], the Kd worked out at 0.239 nM. Besides, the koff in test [3] was 8.8e-05 s⁻¹. The kon in test [3] was determined as 368000 M⁻¹ s⁻¹. In addition, the EC50 in test [6] is 1.22 nM; in test [7], 1.73 nM; in test [8], 0.91 nM; in test [9] it was 0.89 nM; in test [10], 1.3 nM. The IC50 is 0.42 nM in [11] and 186 nM in test [12].

B2: hu44G2 (antibody, V domains shown)
VH: EQQLVETGGGLIQPGGSLRLSCAASGFTINIDYWISWVRQAPGKGLEWIGIIDPGDGTTYFAIWVSGRFTISFDNSKNTVYLQMNSLRAEDTAVYFCVREFSASAYQYDLWGPGTLVTVSS
VL: ELVMTQSPATLSVSPGERATLSCRASEDIENYLAWYQQKPGQPPRLLIYRASTLSSGVPARFSGSGSGTEFTLTISSLQSEDFAVYYCQQGYRNSNVDNPFGGGTKVEIK
notes: Humanized antibody; also called humanized 44G2
With B2, the “EC50 (read off the curve)” value in test [1] and in test [4] was roughly 0.2 nM throughout.

B3: hu57B9 (antibody, V domains shown)
VH: EQQLVETGGGLIQPGGSLRLSCAASEFTINIDYWISWVRQAPGKGLEWIGIIDPGDGTTYFAIWVSGRFTISRDTSKNTVYLQMNSLRAEDTAVYFCAREVSASAYQYDLWGPGTLVTVSS
VL: ELVMTQSPATLSVSPGERATLSCQASEDIESYLAWYQQKPGQPPRLLIYFTSNLASGVPARFSGSGSGTEYTLTISSLQSEDFAVYYCQQGYRNSDVHNPFGGGTKVEIK
notes: Humanized antibody; also called humanized 57B9
As for B3, the concentration giving a half-maximal response (EC50 (read off the curve)) in test [1] is roughly 0.08 nM; in test [4], roughly 0.2 nM.

B4: hu48H10 (antibody, V domains shown)
VH: EQQLVETGGGLIQPGGSLRLSCAASGFTINIDYWISWVRQAPGKGLEWIGIIDPGDGTTYFAIWVSGRFTISTDNSKNTVYLQMNSLRAEDTAVYFCAREFSASAYQYDLWGPGTLVTVSS
VL: ELVMTQSPATLSVSPGERATLSCQASEDIESYLTWYQQKPGQPPRLLMYRASTLSSGVPARFSASGSGTEFTLTISSLQSEDFAVYYCQQGYRNKDVDNPFGGGTKVEIK
notes: Humanized antibody; also called humanized 48H10
With B4, the 50% effective concentration (EC50 (read off the curve)) is roughly 0.1 nM in test [1] and roughly 0.5 nM in test [4].

B5: ch22D10 (antibody, human IgG1, kappa, V domains shown)
VH: QSVEESGGRLVTPGTPLTLTCTASGFTINDYHMNWVRQAPGKGLEWIGIISSNGDTYYASWAKGRFTISRTSTTVDLKMTSLTTEDTATYFCARDDRDRSYAFDPWGPGTLVTVSS
VL: ALVMTQTPSSVSAAVGGTVTINCRASEDIERYLAWYQQKPGQRPKLLIYGASTLASGVPSRFKGSGSGTEYTLTISGVQPDDAATYYCHQGDSSRNVVNVFGGGTEVVVKR
notes: Rabbit/human chimeric IgG1 kappa; also called chimeric 22D10
For B5, in [2], the Kd amounted to 0.313 nM. The koff in test [3] is 0.000106 s⁻¹. In addition, the kon in test [3] was found to be 338000 M⁻¹ s⁻¹. Further, the concentration giving a half-maximal response (EC50) in test [6] was 0.24 nM; in test [7] it was 0.43 nM; in [8], 0.34 nM; in test [9] it was 0.4 nM; in test [10], 0.36 nM. The IC50 in test [11] was 0.22 nM.

B6: hu23D8 (antibody, V domains shown)
VH: EQQLLESGGGLVQPGGSLRLSCAVSGLSLSSNAINWVRQAPGKGLEWIGMIYSGGRIEYASWAKGRFTISKDSSKNTVYLQMNSLRAEDTAVYFCAKGMSPSAHSSDIWGPGTLVTVSS
VL: EGVMTQSPATLSVSPGERATLSCQASQSISDNLSWYQQKPGQPPRLLIYDASDLASGVPARFSGSGSGTEFTLTISSLQSEDFAVYYCQQDWISSNVDNTFGGGTKVEIK
notes: Humanized antibody; also called humanized 23D8
As for B6, the half-maximal effective concentration (EC50 (read off the curve)) in [1] is roughly 0.1 nM; in test [4], roughly 0.5 nM.

Source of the values: patent publication US20260209346A1 (LTZ THERAPEUTICS, published 2026).
